Reference: US20170313754A1 (PROTAGONIST THERAPEUTICS, published 2017)
Like-named read-outs stand apart in the source and are kept apart here. Numbered stars: 1 amine (or outer) side, 2 acyl side, 3 side chain; on linkers, the order of the positions; unused ones are H or OH. Square brackets hold non-standard residues; d marks the D form. Primed or numbered codes have the meaning given here. Ends that are not written are not given here. * marks the point of attachment. Ida = iminodiacetic acid, O=C(CN(CC(=O)[*:3])[*:1])[*:2]; PEG3′ = NH2CH2CH2(OCH2CH2)3CH2CH2CO2H (PEG3 linker); Dip = N[C@H](C(=O)O)C(c1ccccc1)c1ccccc1; Palmitoyl = CCCCCCCCCCCCCCCC(=O)*; β3hF = N[C@H](CC(=O)O)Cc1ccccc1; pGlu = O=C1CC[C@@H](C(=O)O)N1; β3hP = O=C(O)C[C@@H]1CCCN1; Isovaleryl = CC(C)CC(=O)*; Palm = palmitoyl

Assays:
Assay in all cases: cell-based or functional assay
[1] = molecular target: T1, human ferroportin (SLC40A1) fused in frame with GFP, stably expressed on HEK293 cells (human, UniProt Q9NP59 1-571)
T1 sequence (looked up): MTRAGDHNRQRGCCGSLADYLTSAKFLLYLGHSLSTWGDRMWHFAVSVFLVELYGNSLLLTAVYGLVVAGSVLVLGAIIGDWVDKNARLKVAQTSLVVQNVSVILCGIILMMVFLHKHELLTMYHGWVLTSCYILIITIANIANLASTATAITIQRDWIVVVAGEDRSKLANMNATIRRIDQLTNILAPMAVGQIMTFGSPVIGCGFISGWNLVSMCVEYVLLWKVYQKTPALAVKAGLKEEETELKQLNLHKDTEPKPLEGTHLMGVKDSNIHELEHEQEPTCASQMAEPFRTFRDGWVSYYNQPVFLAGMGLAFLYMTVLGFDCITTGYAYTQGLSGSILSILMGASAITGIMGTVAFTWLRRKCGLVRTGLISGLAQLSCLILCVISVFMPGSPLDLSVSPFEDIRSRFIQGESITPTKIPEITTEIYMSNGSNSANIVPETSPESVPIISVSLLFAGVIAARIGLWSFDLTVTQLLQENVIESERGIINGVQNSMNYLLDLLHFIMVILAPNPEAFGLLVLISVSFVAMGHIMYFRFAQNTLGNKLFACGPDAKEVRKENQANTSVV

[2] = molecular target: T2, human ferroportin (SLC40A1) fused in frame with GFP, stably expressed on HEK293 cells (human, UniProt Q9NP59 1-571); remark: listed apart in the source
T2 sequence (looked up): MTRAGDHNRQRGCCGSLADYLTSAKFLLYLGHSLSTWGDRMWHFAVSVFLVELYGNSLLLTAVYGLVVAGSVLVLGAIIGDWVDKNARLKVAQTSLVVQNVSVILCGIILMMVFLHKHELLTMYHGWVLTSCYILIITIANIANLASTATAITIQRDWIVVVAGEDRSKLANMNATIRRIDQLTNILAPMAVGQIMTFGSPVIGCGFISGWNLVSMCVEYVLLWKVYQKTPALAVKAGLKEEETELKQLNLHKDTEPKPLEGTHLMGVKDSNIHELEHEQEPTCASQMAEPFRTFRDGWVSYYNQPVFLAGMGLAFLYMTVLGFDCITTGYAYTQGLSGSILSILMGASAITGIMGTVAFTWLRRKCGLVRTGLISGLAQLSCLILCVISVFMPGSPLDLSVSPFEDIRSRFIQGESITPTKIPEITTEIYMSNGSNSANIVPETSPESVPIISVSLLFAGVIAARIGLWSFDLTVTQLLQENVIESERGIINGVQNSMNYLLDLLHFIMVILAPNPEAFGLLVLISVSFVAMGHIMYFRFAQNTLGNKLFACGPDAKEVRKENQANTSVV

[3] = molecular target: T1, human ferroportin (SLC40A1) fused in …; remark: listed apart in the source
[4] = molecular target: T1, human ferroportin (SLC40A1) fused in …; remark: listed apart in the source
[5] = molecular target: T1, human ferroportin (SLC40A1) fused in …; remark: listed apart in the source

Binder: Isovaleryl-DTHFPCIK(Palmitoyl)F-NH2 (also: homodimer, linkage of subunits not given here) [(isovaleric acid-DTHFPCIK(Palm)-F-NH2)2]
- Potency EC50 (nM), ferroportin internalization/degradation assay [1]: 294 nM

Binder: Isovaleryl-DTHFPCIKFAA-NH2 (also: homodimer, linkage of subunits not given here) [(isovaleric acid-DTHFPCIKFAA-NH2)2]
- Potency EC50 (nM), ferroportin internalization/degradation assay [1]: 47 nM

B1: Cmpd6: Isovaleric acid-DTHFPCIIF-[Sarc]-PHSKG-[N-MeTrp]-VC-NH2 (peptide)
peptide: DTHFPCIIFXPHSKGWVC
modifications: N-terminal isovaleric acid; sarcosine [Sarc] at position 10; N-methyl-tryptophan [N-MeTrp] at position 16; C-terminal amide (-NH2)
- Potency EC50 (nM), ferroportin internalization/degradation assay (loss of GFP fluorescence) [2]: 9 nM

Binder: FICIPFHTD (all nine residues are D-amino acids (retro inverse); C-terminal amide) [RI-Mini Hepcidin, Hy-DPhe-DIle-DCys-DIle-DPro-DPhe-DHis-DThr-DAsp-NH2]
- Potency EC50 (nM), ferroportin degradation [3]: > 10000 nM

Binder: DTHFPICIFK (N-terminal isovaleric acid; Palm on the side chain of Lys 10; C-terminal amide) [(isovaleric acid-DTHFPICIFK(Palm)-NH2)2]
- Potency EC50 (nM), ferroportin internalization/degradation assay [1]: 580 nM

Binder: H-DTHFPICIF-NH2 (also: homodimer, link between subunits not given here) [(Hy-DTHFPICIF-NH2)2]
- Potency EC50 (nM), ferroportin internalization/degradation assay [4]: 146 nM

Binder: H-DTHFPCLF-NH2 (also: homodimer, link between subunits not given here) [(Hy-DTHFPCLF-NH2)2]
- Potency EC50 (nM), ferroportin internalization/degradation assay [5]: 297 nM

Binder: [pGlu]THFPCRKF-NH2 (also: homodimer, linkage of subunits not given here) [([pGlu]-THFPCRKF-NH2)2]
- percent at the stated concentration (printed in the Potency EC50 column), ferroportin internalization/degradation assay [5]: 31 % at 10 uM

Binder: H-DTHFPICIF-NH2 [Mini-Hepcidin 1-9, Hy-DTHFPICIF-NH2]
- Potency EC50 (nM), ferroportin degradation [3]: 712 nM

Binder: [Ida]TH[Dip][β3hP]RCR[β3hF]-{PEG3′-Palm} (also: homodimer, linkage not given here) [(Ida-TH-Dpa-bhPro-RCR-bhPhe-PEG3-Palm)2]
- Potency EC50 (nM), ferroportin internalization/degradation assay [4]: 31 nM
